The target of assay [1] is Rf1 soluble spike ectodomain, stabilised (2P, GSAS linker, T4 fibritin trimerization motif) (bat sarbecovirus Rf1 | bacteriophage T4) (UniProt Q0QDZ0). The experiment in a line: SEC.
For assay [2], the target named is SARS-CoV-1 soluble spike ectodomain, stabilised (2P, GSAS linker, T4 fibritin trimerization motif) (SARS-CoV-1 | bacteriophage T4) (UniProt P59594). The experiment in a line: SEC. (SEC sorts molecules by how far they enter the pores of the column.)

Experimental findings from paper PMC10015101 are described below.

By stoichiometry N is commonly meant a count of units in the complex or per binding partner.

With “Rf1 soluble spike ectodomain, stabilised (2P, GSAS linker, T4 fibritin trimerization motif) (from UniProt Q0QDZ0 1-1176) (domain or fragment)”, the stoichiometry N in assay [1] was 3. In assay [2], “SARS-CoV-1 soluble spike ectodomain, stabilised (2P, GSAS linker, T4 fibritin trimerization motif) (from UniProt P59594 14-1190) (domain or fragment)” registered a stoichiometry N of 3.
